The experiment addresses Geobacillus kaustophilus ribosomal protein S18 (Geobacillus kaustophilus, UniProt Q5KU71 1-78). Description: native gel or EMSA.

Results on one molecule are retold here after paper PMC3895269 (RNA, 2014).

B1: Geobacillus kaustophilus ribosomal protein S6 (natural protein)
chain: MRKYEIMYIIRPNMDDEARQALVERFNNVLKENGAEITNVTDWGKRRLAYEIQKYRDGYYMIVNVVSEPKAVQEFDRLARISEDIIRHIVVKEEE
Consider B1, for which the binding result was “binds”.
